Measurements from US7579150B1, “Mobile RNA acts as a signal to regulate plant growth and development” (Iowa State University Research Foundation, Inc., priority 2004, dated 2009).
“Also recorded” adds a separate entry of the source.

Key:
[1] = tested on: POTH1 overexpression lines; test: Exogenous GA3 application to POTH1 overexpression lines; assay type: in vivo, Solanum tuberosum; conditions: shoot apex sprayed with 10 μM GA3 in 0.002% (v/v) ethanol
From the text: Many of the traits of the phenotypes observed in POTH1 overexpression lines were similar to GA-deficient mutants. These similarities included decreased plant height, decreased internode length, and darker green coloration of the leaves (van den Berg et al., “Morphology and [^14C]Gibberellin A12 Metabolism in Wild-Type and Dwarf Solanum Tuberosum ssp. Andigena Grown Under Long and Short Photoperiods,” J. Plant Physiol. 146:467-473 (1995), which is hereby incorporated by reference in its entirety). Because of this, exogenous GA3 was applied to determine whether the overexpression lines were responsive to GA treatment. The shoot apex of overexpression lines was sprayed to runoff with 10 μM GA3 in 0.002% (v/v) ethanol or with 0.002% (v/v) ethanol alone. […] Palisade and spongy parenchyma organization is partially rescued in leaves from line 15 treated with GA3 (FIG. 5G). The GA3-treated leaf (FIG. 5J) of the severe mutant, line 15, is more similar in morphology to the wild-type leaf (FIG. 5K). Leaflets are more ovate in form rather than the typical mouse-ear shape. Wild-type leaves have a prominent mid-vein (FIG. 5L), whereas the mid-vein (FIG. 5M, arrow) is more prominent in the mutant GA3-treated leaf than in the mutant untreated leaf (FIG. 5N). […]

[2] = biological target: POTH1 (full-length) in pBridge, fused to the GAL4 DNA-binding domain (Solanum tuberosum); test: yeast two-hybrid, quantitative beta-galactosidase assay; reference: full-length construct StBEL-05 (pAD-05)
[3] = tested on: ga20ox1 promoter; test: Transcription (transfection) assay, pGAOP::GUS reporter in tobacco protoplasts; assay type: cell-based, potato; conditions: for decrease of relative GUS-LUC activity of the pGAOP::GUS reporter: co-transfected effector, tobacco protoplasts; for repression of ga20ox1 promoter with point mutation in the binding site: mutated reporter construct
From the text: The cauliflowermosaic virus (CaMV) 35S promoter in pBI221 (Clontech, Palo Alto, Calif.) was replaced by an enhancer fragment (−832 to −50) of the 35S promoter plus 980 bp of the ga20ox1 promoter to generate the pGAOP::β-glucuronidase (GUS) reporter construct. With this construct, the reporter GUS transcription level is augmented but its transcription may still be affected by the ga20ox1 promoter. A CaMV 35S promoter-driven luciferase (LUC) construct 35S-LUC (obtained from Dr. Takahashi, Dept. of Biological Sciences, Graduate School of Science, Univ. of Tokyo, Japan) was used as an internal control. Effector constructs were also generated by using pBI221 vector as a backbone, with the GUS gene replaced by the full-length cDNAs of either StBEL-05 or POTH1, downstream of the CaMV 35S promoter. Truncated cDNAs that encode the N-terminal protein-binding domains of StBEL-05 or POTH1 were used to generate the dominant negative constructs, StBEL5ΔC295 and POTH1ΔC122, respectively. The reporter construct with the mutated promoter was generated by site-directed PCR mutagenesis with oligos 5′-CTATTTGACTTC*ACACGGTTATTT-3′ (SEQ ID NO:23) and 5′-AAATAACCGTGTG*AAGTCAAATAG-3′ (SEQ ID NO:24).
Fully expanded leaves from three- to four-week-old tobacco plants were excised and placed in K3 basal media (Kao et al., “Nutritional Requirements for Growth of Vicia hajastana Cells and Protoplasts at a Very Low Density in Liquid Media,” Planta 126:105-110 (1975), which is hereby incorporated by reference in its entirety) supplemented with 0.4 M sucrose, 0.25% (w-v) cellulases (Karlan Research Products, Santa Rosa, CA), and 0.05% (w-v) macerases (Calbiochem, La Jolla, Calif.) and incubated for overnight at 28° C. After incubation, the liberated protoplasts were filtered through sterile cheesecloth into a Babcock bottle, and centrifuged for 10 minutes at 1000 rpm. Protoplasts were collected from the bottleneck area and washed once in K3 media with 0.4 M sucrose and resuspended in K3 media containing 0.4 M glucose to a final concentration of 4×10^6 protoplasts per milliliter. […]
Luciferase assays were performed by injecting 100-μL luciferase substrate (Promega, Madison, Wis.) into 20 μL of extract and measuring the emitted photons for 15 seconds in a TD-20 luminometer (Turner Designs, Sunnyvale, Calif.). […] A fluorescence multiwell plate reader, Fluoroskan II (MTX labs, Vienna, Va.), was used to measure GUS activity at 365 nm (excitation) and 455 nm (emission). Each sample was measured three times for both LUC and GUS activity. Relative GUS-LUC activity was calculated by dividing the ratio of GUS activity to LUC activity from different effectors with the ratio from reporter plasmid alone. Relative activities calculated from three transfection replications were presented as a mean±SE.

[4] = tested on: CaMV 35S promoter; test: Transcription (transfection) assay, 35S GUS construct in tobacco protoplasts; assay type: cell-based, cauliflower mosaic virus
[5] = tested on: POTH1; test: Yeast two-hybrid interaction with POTH1 (nutritional selection, beta-galactosidase); assay type: cell-based, potato; conditions: yeast strain AH109, nutritional markers and lacZ
From the text: The Matchmaker two-hybrid system (Clontech, CA) was used for the yeast two-hybrid screen. Yeast transformation and plasmid rescue into DH5-a E. coli cells were according to the manufacturer's instructions. Full-length POTH1 was cloned into the pBridge (Clontech, CA) vector and used as bait to screen the potato (S. tuberosum ‘Desireé’) stolon cDNA library in pAD-GAL4-2.1 (Stratagene, Calif.). Positive interactions were confirmed by cotransforming yeast strain AH109 with each purified pAD plasmid and pBridge: POTH1 and plating on -leucine/-tryptophan (transformation control) and -leucine/-tryptophan/-histidine/-adenine (selection) nutrient medium. Induction of the AH109 reporter gene, lacZ, was measured with a yeast β-galactosidase assay kit (Pierce Chemicals). β-galactosidase activity (FIG. 9B) was determined from a known density of yeast cells and calculated as 1000×OD420/time of color reaction (minutes)×volume of yeast culture (ml)×OD600.
The StBEL-05 deletion constructs were amplified by PCR, then cloned into the vector, pGAD, in-frame with the GAL4 activation domain. POTH1 deletion constructs were amplified by PCR, and cloned into pBridge (Clontech) in-frame with the GAL4 binding domain. Sequencing of selected cDNAs and constructs was performed at the Iowa State University DNA Facility. For deletion analysis, modified constructs of POTH1 were cloned into the pBridge vector for fusion with the DNA-binding domain of GAL4 (FIG. 10A). For StBEL-05, constructs were cloned into the pGAD vector for fusion with the activating domain of GAL4 (FIG. 10B). Deletion constructs were made from both the amino and carboxy termini. These mutants were then tested for interaction in the yeast two-hybrid system by cotransforming into yeast strain AH109 with the corresponding full-length partner (StBEL-05 in pGAL4 or POTH1 in pBridge). All constructs were sequenced to verify that they were in-frame. Positive interactions were verified for lacZ induction by using a β-galactosidase assay (Pierce Chemical Company). For POTH1, seven deletion constructs were tested (FIG. 10A). For the BEL TFs, a fusion construct of StBEL-05 (653 aa of StBEL-05 sequence) and nine deletion constructs were tested (FIG. 10B).

[6] = tested on: ga20ox1 promoter regions P1, P2, P3 and first intron; test: Gel retardation (gel mobility shift) assay; assay type: binding, potato; conditions: recombinant protein from E. coli
From the text: The first intron with partial flanking exon sequence (450 bp) of potato ga20ox1 and its promoter (981 bp, provided by Dr. Salomé Prat, CSIC Cantoblanco Campus, Univ. of Madrid, Spain) were used for gel mobility shift assays. Polymerase chain reaction (PCR) was used to amplify three regions of the promoter: −981 to 636 (P1), −660 to 307 (P2), and −331 to 0 (P3). About a 25-bp overlap was maintained between P1 and P2 or P2 and P3 in the chance that the protein-binding site would span the overlapped region. The first intron of this gene was amplified from potato genomic DNA by using PCR and the oligos 5′-[…]-3′ (SEQ ID NO:21) and 5′-[…]-3′ (SEQ ID NO:22) as primers. These primers were designed based on the site of the first intron of the tobacco GA20 oxidase gene Ntc12. The four fragments were purified on a 1.4% agarose gel and labeled with α^32P-dATP using Klenow fragment. […]
In the competition assays, unlabeled double-stranded DNA fragments (10×, 25×, 50×, 100×) were incubated with the recombinant protein before the addition of the radioactive probe. The dissociation rates were determined by adding 500-fold more cold DNA fragments to the DNA-binding reactions that were being incubated on ice, and loaded onto the running gel every 10 minutes. […]

Row | Molecule | effect on leaf morphology of POTH1 overexpression lines [1] | effect on plant height / dwarf phenotype of POTH1 overexpression lines [1] | decrease in the induction of the lacZ marker (beta-galactosidase activity) relative to the full-length construct, StBEL-05 [2] [%] | decrease of relative GUS-LUC activity of the pGAOP::GUS reporter [3] | repression of ga20ox1 promoter with point mutation in the binding site [3] | effect on activity of the CaMV 35S promoter [4] | interaction with POTH1 [5] | binding to ga20ox1 regulatory regions [6]
1 | C=C1C[C@]23C[C@@]1(O)CC[C@H]2[C@@]12C=C[C@H](O)[C@@](C)(C(=O)O1)[C@H]2[C@@H]3C(=O)O [GA3] | partially rescued the leaf morphology of both severe and intermediate phenotypes; also recorded: partial reversal of the leaf phenotype | caused plants with a severe phenotype to increase in height; also recorded: completely rescued the dwarf phenotype | – | – | – | – | – | –
2 | pAD5-1, StBEL-05 deletion construct in pGAD (GAL4 activation domain fusion) | – | – | 55 | – | – | – | – | –
3 | StBEL-05: BEL transcription factor from Solanum tuberosum, SEQ ID NO:2, 688 aa (protein, listed as Solanum tuberosum) MYYQGTSDNTNIQADHQQRHNHGNSNNNNIQTLYLMNPNNYMQGYTTSDTQQQQQLLFLNSSPAASNALCHANIQHAPLQQQHFVGVPLPAVSLHDQINHHGLLQRMWNNQDQSQQVIVPSSTGVSATSCGGITTDLASQLAFQRPIPTPQHRQQQQQQGGLSLSLSPQLQQQISFNNNISSSSPRTNNVTIRGTLDGSSSNMVLGSKYLKAAQELLDEVVNIVGKSIKGDDQKKDNSMNKESMPLASDVNTNSSGGGESSSRQKNEVAVELTTAQRQELQMKKAKLLAMLEEVEQRYRQYHHQMQIIVLSFEQVAGIGSAKSYTQLALHAISKQFRCLKDAIAEQVKATSKSLGEEEGLGGKIEGSRLKFVDHHLRQQRALQQIGMMQPNAWRPQRGLPERAVSVLRAWLFEHFLHPYPKDSDKIMLAKQTGLTRSQVSNWFINARVRLWKPMVEEMYLEEVKNQEQNSTNTSGDNKNKETNISAPNEEKHPIITSSLLQDGITTTQAEISTSTISTSPTAGASLHHAHNFSFLGSFNMDNTTTTVDHIENNAKKQRNDMHKFSPSSILSSVDMEAKARESSNKGFTNPLMAAYAMGDFGRFDPHDQQMTANFHGNNGVSLTLGLPPSENLAMPVSQQNYLSNDLGSRSEMGSHYNRMGYENIDFQSGNKRFPTQLLPDFVTGNLGT | – | – | – | more than half | no detectable repression of promoter activity | Neither StBEL-05 nor POTH1 showed any effect | showed selective interaction | retarded the mobility of all three promoter sequences and the first intron
4 | POTH1: KNOX transcription factor of potato, SEQ ID NO:17, 345 aa (protein, listed as Solanum tuberosum) MDDEMYGFHSTRDDYADKALMSPENLMMQTEYNNFHNYTNSSILTSNPMMFGSDDIQLSSEQTNSFSTMTLQNNDNIYQIRSGNCGGGSGSGGSSKDHNDNNNNNEDYDEDGSNVIKAKIVSHPYYPKLLNAYIDCQKVGAPAGIVNLLEEIRQQTDFRKPNATSICIGADPELDEFMETYCDILLKYKSDLSRPFDEATTFLNKIEMQLGNLCKDDGGVSSDEELSCGEADASMRSEDNELKDRLLRKFGSHLSSLKLEFSKKKKKGKLPKEARQMLLAWWDDHFRWPYPTEADKNSLAESTGLDPKQINNWFINQRKRHWKPSENMQLAVMDNLSSQFFSSDD | – | – | – | more than half | no detectable repression of promoter activity | Neither StBEL-05 nor POTH1 showed any effect | – | only formed a complex with P1
